These results are taken from paper PMC3435532.

Data set [1] concerns FLI1-CTD (C-terminal FLI1 domain, non-acetylated). In words: EMSA. Conditions: Non-radioactive EMSA: 1 ug protein, 500 fmol biotinylated dsDNA, binding buffer per Uren et al. 2004 (not given); 6% gel in 0.5x TBE; protein stock 20 mM ….
A further data set relates to acetyl-FLI1-CTD. As to the kind of experiment: EMSA. Particulars: acetylated by CBP HAT; 1 ug protein, 500 fmol probe; Non-radioactive EMSA: 1 ug protein, 500 fmol biotinylated dsDNA, binding buffer per Uren et al. 2004 (not given); 6% gel in 0.5x TBE; protein stock 20 mM …. Background: Mobility shift assays separate free from complexed probe on a gel.

“ets-binding site oligonucleotide (wild type)”: the binding signal (fold (reference, non-acetylated)) in data set [1] was 1. The binding signal (fold vs non-acetylated FLI1-CTD) in the data set with acetyl-FLI1-CTD came to 4.
